According to the supplement of paper PMC10126150:
± gives the standard deviation of the averaged measurements.
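Note: ATP exposure 15 min at 22 °C before imaging.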

These sequences were tested on ATP (assay: switch fluorescence ratio, 500 uM ATP over buffer (Cy3 cluster intensity, sum of 5 cycles each) (fold (ratio)); higher = stronger signal-on switching upon ATP binding; sequences stand for … in TCGTCGGCAGCGTCAGATGTGTATAAGAGACAGTTTTTTTTTTTTTTTTTTTTTTTTT…TC). Settings: aptamer strand: ATP DNA aptamer (quencher-CACCTGGGGGAGTATTGCGGAGGAAGG + anchor), 100 nM annealed; ATP concentration: 500 uM.
Method in brief: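 Cy3-labelled switching-strand clusters on a modified Illumina MiSeq flow-cell were annealed to 100 nM quencher-labelled ATP aptamer and imaged first in selection buffer, then after 15 min with 500 uM ATP at 22 °C. NaOH stripping and re-annealing separated each of five buffer/ATP cycles, and clusters outside 100-1000 RFU were excluded. The fluorescence ratio sums target-cycle Cy3 intensity over buffer-cycle Cy3 intensity per cluster and averages it per switch-domain sequence.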
Work on GGTTTTATGC yielded a switch fluorescence ratio of 0.985 ± 0.0053. TGAGTCGGGA showed a switch fluorescence ratio of 1.01 ± 0.014. Work on TTTGTAAAGA yielded a switch fluorescence ratio of 1 ± 0.018. CGTGAGAAAG showed a switch fluorescence ratio of 1 ± 0.018. With GTTTTGCGAA the switch fluorescence ratio was 0.9957 ± 0.0086. Sequence AAAAGCATGT has a switch fluorescence ratio of 1.06 ± 0.03. Sequence GTGGTGGAAA has a switch fluorescence ratio of 1 ± 0.0029. With CTGATACTGG the switch fluorescence ratio was 0.997 ± 0.045. With CTTCTTGTTT the switch fluorescence ratio was 1.008 ± 0.0037. Work on TTTTTAATTC yielded a switch fluorescence ratio of 1.03 ± 0.024. TTTCGGCGGG was tested, and the switch fluorescence ratio was 1 ± 0.013. Sequence GAATGGGAGG has a switch fluorescence ratio of 0.975 ± 0.02. CATTGTGCCT showed a switch fluorescence ratio of 1.04 ± 0.018. CCGGTGGGGT gave a switch fluorescence ratio of 1.01 ± 0.03. In the case of CTTCGGACCG, the switch fluorescence ratio is reported as 1.03 ± 0.096. With CGGTGTCAGC the switch fluorescence ratio was 1.012 ± 0.0059. In the case of CATTTACGCT, the switch fluorescence ratio is reported as 1.03 ± 0.014. In the case of CCAGGTAGCA, the switch fluorescence ratio is reported as 1.27 ± 0.12. GGGGAGAGAG gave a switch fluorescence ratio of 0.9747 ± 0.0073. GGGGGCTGCA gave a switch fluorescence ratio of 1.02 ± 0.032. Sequence CGATGTCGTA has a switch fluorescence ratio of 1.03 ± 0.034. TGCATGCAGG gave a switch fluorescence ratio of 1.02 ± 0.015. With CGTTTCGTTT the switch fluorescence ratio was 0.98 ± 0.039. In the case of AGGCTGCATG, the switch fluorescence ratio is reported as 1.01 ± 0.021. GACATGGGGA was tested, and the switch fluorescence ratio was 1.06 ± 0.015. TTCGGTGGGT gave a switch fluorescence ratio of 0.988 ± 0.027. Sequence TGCGACGATG has a switch fluorescence ratio of 1.03 ± 0.027. Sequence GCTCGCGTGG has a switch fluorescence ratio of 0.956 ± 0.025. For TAGGGTTGGT, the switch fluorescence ratio was 1.01 ± 0.046. In the case of TCATATTATT, the switch fluorescence ratio is reported as 1 ± 0.033. With ATGAACATTT the switch fluorescence ratio was 1 ± 0.033. For TAATTTATTT, the switch fluorescence ratio was 1.03 ± 0.029. For CCTATGCGGT, the switch fluorescence ratio was 2.6 ± 0.067. AAGGAGAGGG gave a switch fluorescence ratio of 1 ± 0.096. GATGTGTGGG was tested, and the switch fluorescence ratio was 0.9843 ± 0.0015. With TTACATTTTG the switch fluorescence ratio was 1.01 ± 0.026. Sequence GGGAGTTTCG has a switch fluorescence ratio of 1.06 ± 0.095. ATAATTGGCC was tested, and the switch fluorescence ratio was 0.97422 ± 0.00035. Work on GGGGGTTTAG yielded a switch fluorescence ratio of 1 ± 0.028. With TTACTATTTT the switch fluorescence ratio was 1.03 ± 0.023. Sequence CATAGATAGG has a switch fluorescence ratio of 0.992 ± 0.011. CCTGAGGTTA was tested, and the switch fluorescence ratio was 1.03 ± 0.096. In the case of CAAAGGGGCA, the switch fluorescence ratio is reported as 1.046 ± 0.0052. CCTGATGGTA was tested, and the switch fluorescence ratio was 1.03 ± 0.025. In the case of CCGGGAGGAT, the switch fluorescence ratio is reported as 0.987 ± 0.035. CCTGGGAGTG was tested, and the switch fluorescence ratio was 0.999 ± 0.035. AACTTGGACC was tested, and the switch fluorescence ratio was 1.05 ± 0.035. CTGTTCTGGG gave a switch fluorescence ratio of 1.003 ± 0.0063. With CCAGGGGCGC the switch fluorescence ratio was 1.04 ± 0.017. GAGGACGGGG showed a switch fluorescence ratio of 1.01 ± 0.011. TTCCATGTCG showed a switch fluorescence ratio of 0.958 ± 0.02. Work on TGGGGAGAGC yielded a switch fluorescence ratio of 0.992 ± 0.019. GCTAGAAGCG showed a switch fluorescence ratio of 1.001 ± 0.0099. With AACAGAGTTA the switch fluorescence ratio was 1.02 ± 0.013. Work on GTGGTGCACG yielded a switch fluorescence ratio of 0.9971 ± 0.0026. In the case of GTGGTTATCG, the switch fluorescence ratio is reported as 1.02 ± 0.043. Sequence AAAAAATTGC has a switch fluorescence ratio of 1.04 ± 0.058. CGTAACATGG was tested, and the switch fluorescence ratio was 1.022 ± 0.0099. For TATTGAATTC, the switch fluorescence ratio was 1.01 ± 0.016. In the case of TTTATTCCGG, the switch fluorescence ratio is reported as 1 ± 0.01. For TATGTTTTTC, the switch fluorescence ratio was 0.9687 ± 0.0014. For GTCGCTTGTC, the switch fluorescence ratio was 0.995 ± 0.023. Sequence TTATATTTCT has a switch fluorescence ratio of 1.01 ± 0.036. Sequence TTTGTAAGTA has a switch fluorescence ratio of 1 ± 0.013. In the case of GCTATACGTA, the switch fluorescence ratio is reported as 1.22 ± 0.049. GTAGTTCTAG gave a switch fluorescence ratio of 0.9852 ± 0.0081. ACTTGGTAT was tested, and the switch fluorescence ratio was 1 ± 0.07. With ACGGGGGCGC the switch fluorescence ratio was 0.986 ± 0.059. For GCCTCCTTTT, the switch fluorescence ratio was 1.05 ± 0.019. Sequence GGCTTCTAAG has a switch fluorescence ratio of 0.994 ± 0.026. CGAGTATGAA gave a switch fluorescence ratio of 0.989 ± 0.06. With AAACTGGTAT the switch fluorescence ratio was 0.982 ± 0.02. For ATGCCAAAGG, the switch fluorescence ratio was 1.01 ± 0.055. In the case of TTGGAGGTGG, the switch fluorescence ratio is reported as 0.959 ± 0.031. TTGGGGAAGC showed a switch fluorescence ratio of 0.958 ± 0.002. AGTTGTTGGT gave a switch fluorescence ratio of 1.01 ± 0.014. Sequence GAGCTGCAGT has a switch fluorescence ratio of 0.947 ± 0.047. CTCGATAGTA gave a switch fluorescence ratio of 0.9741 ± 0.003. Work on TATTGGTTCA yielded a switch fluorescence ratio of 0.996 ± 0.018. For AATGAAAAAC, the switch fluorescence ratio was 1.007 ± 0.0054. For CATGAGGTCG, the switch fluorescence ratio was 0.989 ± 0.047. Sequence ACGGGCTGCT has a switch fluorescence ratio of 1 ± 0.018. ACCCGTTGTG was tested, and the switch fluorescence ratio was 1.05 ± 0.03. TTTGGGGCGA gave a switch fluorescence ratio of 1.02 ± 0.031. Sequence GAAAGGGTGG has a switch fluorescence ratio of 0.9746 ± 0.0081.
